{"source": "paper PMC12785156", "binders": {"B1": {"name": "GST-PUB11-ARM (domain or fragment)", "chain": "QPAGYINGRTKNSGDMSVIRALVQRLSSRSTEDRRNAVSEIRSLSKRSTDNRILIAEAGAIPVLVNLLTSEDVATQENAITCVLNLSIYENNKELIMFAGAVTSIVQVLRAGTMEARENAAATLFSLSLADENKIIIGGSGAIPALVDLLENGTPRGKKDAATALFNLCIYHGNKGRAVRAGIVTALVKMLSDSTRHRMVDEALTILSVLANNQDAKSAIVKANTLPALIGILQTDQTRNRENAAAILLSLCKRDTEKLITIGRLGAVVPLMDLSKNGTERGKRKAISLLELLRKACQ", "modifications": "not checked"}}, "target": "T1, hydroxylated His-AtHPPD (under oxidative stress, H2O2) (Arabidopsis thaliana), P93836", "T1 chain": "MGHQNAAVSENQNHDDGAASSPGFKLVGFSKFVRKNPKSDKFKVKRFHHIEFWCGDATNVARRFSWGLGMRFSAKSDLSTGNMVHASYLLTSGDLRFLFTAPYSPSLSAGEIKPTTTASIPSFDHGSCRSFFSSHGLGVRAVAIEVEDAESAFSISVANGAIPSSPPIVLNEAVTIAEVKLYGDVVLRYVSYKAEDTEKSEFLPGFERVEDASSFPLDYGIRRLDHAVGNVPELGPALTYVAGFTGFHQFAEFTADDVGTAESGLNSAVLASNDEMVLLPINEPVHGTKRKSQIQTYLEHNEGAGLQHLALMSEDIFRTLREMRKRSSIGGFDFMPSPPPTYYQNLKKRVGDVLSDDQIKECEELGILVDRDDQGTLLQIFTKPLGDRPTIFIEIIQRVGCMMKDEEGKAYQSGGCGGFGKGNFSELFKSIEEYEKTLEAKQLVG", "assay": "MST; as the MST of untreated His-AtHPPD, but AtHPPD under oxidative stress (H2O2, concentration not stated); GST-PUB11-ARM serially diluted; 25°C; 20 mM HEPES pH 8.0, 100 mM NaCl", "data": [{"binder": "B1", "values": [{"measurement": "Kd", "result": 2930, "unit": "nM"}]}]}
